Data on five molecules can be found in paper PMC4756840, “The RNA-binding protein LARP1 is a post-transcriptional regulator of survival and tumorigenesis in ovarian cancer”.

Series [1] deals with T1, LARP1 full length (UniProt Q6PKG0-3 1-1019). The experiment in a line: EMSA; judged non-specific; Kd only in figure; 20 mM Tris-HCl pH 8, 150 mM NaCl, 10% glycerol, 1 mM DTT, 1 ug BSA, 0.5 ug tRNA, RNA <2 nM, 30 min on ice; native PAGE at 4 C. Conditions: protein: recombinant; tags: N-terminal 6xHis-MBP, removed by TEV cleavage; label: 5'-32P.
The target of series [2] is T1, LARP1 full length. In words: competition; vs 32P-RPS6, 1-30 uM cold RNA; 20 mM Tris-HCl pH 8, 150 mM NaCl, 10% glycerol, 1 mM DTT, 1 ug BSA, 0.5 ug tRNA, RNA <2 nM, 30 min on ice; native PAGE at 4 C. Conditions: protein: recombinant; tags: N-terminal 6xHis-MBP, removed by TEV cleavage; label: 5'-32P in direct EMSA. (In general: Mobility shift assays separate free from complexed probe on a gel.)

The target of series [3] is T1, LARP1 full length. The experiment in a line: EMSA; tRNA and BSA present; Kd only in figure; 20 mM Tris-HCl pH 8, 150 mM NaCl, 10% glycerol, 1 mM DTT, 1 ug BSA, 0.5 ug tRNA, RNA <2 nM, 30 min on ice; native PAGE at 4 C. Conditions: protein: recombinant; tags: N-terminal 6xHis-MBP, removed by TEV cleavage; label: 5'-32P in direct EMSA.

B1: BCL2 3' UTR construct 1 (ssRNA)
RNA: GGCUCCACCUGGAUGUUCUGUGCCUGUAAACAUAGAUUCGCUUUCCAUGUUGUUGGCCGGAUCACCAUCUGAAGAGCAGACGGAUGGAAAAAGGACCUGAUCAUUGGGGAAGCUGGCUUUCUGGCUGCUGGAGGCUGGGGAGAAGGUGUUCAUUCACUUGCAUUUCUUUGCCCUGGG
Take B1: in the series with LARP1 full length [1], the binding signal is ~0.25 affinity relative to BCL2 construct 3.

B2: OAZ1 3' UTR (ssRNA)
RNA: GGCCGCCUCGGGGCUGGGCAUCCGGCCCCUGGGGCCACCCCUUGUCAGCCGGGUGGGUAGGAACCGUAGACUCGCUCAUCUCGCCUGGGUUUGUCCGCAUGUUG
As to B2, in the series with LARP1 full length [2], the binding result is on record as “no binding”.

B3: BCL2 3' UTR construct 3 (ssRNA)
RNA: GCCUGUUUUGUCUUUUGUUGUUGUUCAAACGGGAUUCACAGAGUAUUUGAAAAAUGUAUAUAUAUUAAGAGGUCACGGGGGCUAAUUGCUGGCUGGCUGCCUUUUGCUGUGGGGUUUUGUU
With B3, the binding signal in the series with LARP1 full length [3] is ~4 fold higher affinity than other BCL2 constructs.

B4: BCL2 3' UTR construct 4 (ssRNA)
RNA: GCCCUCCAGAUAGCUCAUUUCAUUAAGUUUUUCCCUCCAAGGUAGAAUUUGCAAGAGUGACAGUGGAUUGCAUUUCUUUUGGGGAAGCUUUCUUUUGGUGGUUUUGUUUAUUAUACCUUCUUAAGUUUUCAACCAAGGUUUGCUUUUGUU
On to B4, for which the binding signal with LARP1 full length [1] was ~0.25 affinity relative to BCL2 construct 3.

B5: BCL2 3' UTR construct 2 (ssRNA)
RNA: GCCCUCCUGCCCUCCUUCCGCGGGGGCUUUCUCAUGGCUGUCCUUCAGGGUCUUCCUGAAAUGCAGUGGUGCUUACGCUCCACCAAGAAAGCAGGAAACCUGUGGUAUGAAGCCAGACCUCCCCGG
Turning to B5, the binding signal with LARP1 full length [1] is ~0.25 affinity relative to BCL2 construct 3.
